We go through ten molecules from patent US20240116985A1, “STAPLED PEPTIDES AND METHODS THEREOF” (priority 2020, published 2024).

Starred links: 1 amine or outer side, 2 acyl side, 3 side chain; linkers in the order of their positions; H or OH if unused. Positions of bridges follow the written chain, without caps; N, C: chain ends. Non-standard residues stand in square brackets, D forms with d. Primed or numbered codes have the meaning given here. No end group written: not given here. *: point of attachment. PyrS2″ = (S)-3-amino-1-((pent-4-en-1-yloxy)carbonyl)pyrrolidine-3-carboxylic acid (stapling residue), C=CCCCOC(=O)N1CC[C@@](N[*:1])(C(=O)[*:2])C1; B5(4) = 2,2-bis(4-pentenyl)glycine = 2-amino-2-(pent-4-en-1-yl)hept-6-enoic acid (stitching residue), C=CCCCC(CCCC=C)(N[*:1])C(=O)[*:2]; B5(5) = 2,2-bis(4-pentenyl)glycine, 2-amino-2-(pent-4-en-1-yl)hept-6-enoic acid (stitching residue), C=CCCCC(CCCC=C)(N[*:1])C(=O)[*:2]; PyrS2 = (S)-3-amino-1-((pent-4-en-1-yloxy)carbonyl)pyrrolidine-3-carboxylic acid, C=CCCCOC(=O)N1CC[C@@](N[*:1])(C(=O)[*:2])C1; NdiMeButC = N-terminal 4-(dimethylamino)butanoyl, CN(C)CCCC(=O)*; Phe(3-CF3) = N[C@@H](Cc1cccc(C(F)(F)F)c1)C(=O)O; Phe(4-CF3) = N[C@@H](Cc1ccc(C(F)(F)F)cc1)C(=O)O; Phe(2-Cl) = N[C@@H](Cc1ccccc1Cl)C(=O)O; Bta = N[C@@H](Cc1csc2ccccc12)C(=O)O; αAllylPro = C=CC[C@@]1(C(=O)O)CCCN1; hPhe = N[C@@H](CCc1ccccc1)C(=O)O; tBuAla = CC(C)(C)C[C@H](N)C(=O)O; 3Thi = N[C@@H](Cc1ccsc1)C(=O)O; Octanoyl = CCCCCCCC(=O)*

Chain of beta-catenin (Homo sapiens (Human)) (P35222 whole entry): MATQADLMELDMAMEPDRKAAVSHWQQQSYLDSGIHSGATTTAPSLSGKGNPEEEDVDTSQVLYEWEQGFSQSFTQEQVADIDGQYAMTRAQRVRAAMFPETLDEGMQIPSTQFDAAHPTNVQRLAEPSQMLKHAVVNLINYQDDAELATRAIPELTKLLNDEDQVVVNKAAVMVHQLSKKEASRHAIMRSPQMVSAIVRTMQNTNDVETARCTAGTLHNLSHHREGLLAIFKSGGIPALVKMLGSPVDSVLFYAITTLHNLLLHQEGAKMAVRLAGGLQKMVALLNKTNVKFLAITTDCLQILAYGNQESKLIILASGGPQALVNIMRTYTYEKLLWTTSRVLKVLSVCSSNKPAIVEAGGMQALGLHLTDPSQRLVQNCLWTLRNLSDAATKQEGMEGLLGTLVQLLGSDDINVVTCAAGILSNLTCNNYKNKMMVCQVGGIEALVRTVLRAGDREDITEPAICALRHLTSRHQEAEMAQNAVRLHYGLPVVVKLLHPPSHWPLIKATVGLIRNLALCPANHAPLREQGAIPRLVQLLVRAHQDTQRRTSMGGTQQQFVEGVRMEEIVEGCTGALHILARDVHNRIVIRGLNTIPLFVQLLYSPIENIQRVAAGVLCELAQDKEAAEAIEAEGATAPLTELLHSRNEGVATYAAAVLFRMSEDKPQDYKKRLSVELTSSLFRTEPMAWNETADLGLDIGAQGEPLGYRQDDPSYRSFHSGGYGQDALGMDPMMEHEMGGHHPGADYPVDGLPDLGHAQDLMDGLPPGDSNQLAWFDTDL

The target of one assay is full-length beta-Catenin (Uniprot ID P35222) (Homo sapiens (Human)) (UniProt P35222). Nature of the assay: fluorescence polarization competition; 10 nM full-length beta-catenin + 10 nM 5FAM-TCF4 10-53 as competitor probe.
Target sequence in this assay (P35222 2-781 limits assumed): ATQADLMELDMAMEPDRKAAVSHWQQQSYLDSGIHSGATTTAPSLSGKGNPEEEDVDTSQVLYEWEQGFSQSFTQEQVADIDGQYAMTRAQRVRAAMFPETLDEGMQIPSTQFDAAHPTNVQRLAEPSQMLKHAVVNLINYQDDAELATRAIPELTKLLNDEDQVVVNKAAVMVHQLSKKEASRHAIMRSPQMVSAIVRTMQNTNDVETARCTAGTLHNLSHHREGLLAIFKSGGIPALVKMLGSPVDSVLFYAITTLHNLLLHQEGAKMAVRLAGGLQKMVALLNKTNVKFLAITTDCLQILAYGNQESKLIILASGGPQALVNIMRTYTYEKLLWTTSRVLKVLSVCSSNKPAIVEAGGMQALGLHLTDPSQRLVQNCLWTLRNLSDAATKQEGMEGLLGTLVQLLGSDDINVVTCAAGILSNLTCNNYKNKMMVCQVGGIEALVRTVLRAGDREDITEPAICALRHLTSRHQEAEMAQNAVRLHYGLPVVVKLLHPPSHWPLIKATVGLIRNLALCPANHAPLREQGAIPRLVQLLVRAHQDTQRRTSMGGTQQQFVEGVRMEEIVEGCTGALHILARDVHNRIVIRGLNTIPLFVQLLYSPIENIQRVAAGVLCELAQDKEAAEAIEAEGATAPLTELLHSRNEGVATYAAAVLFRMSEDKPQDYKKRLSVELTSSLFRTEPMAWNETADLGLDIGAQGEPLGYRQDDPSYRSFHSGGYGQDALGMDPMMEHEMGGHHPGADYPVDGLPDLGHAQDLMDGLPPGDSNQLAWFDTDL
Take Ac-[αAllylPro]D[tBuAla][B5(5)]DDAAFT[PyrS2″][Phe(2-Cl)][Bta][dT]-NH2 (staple 1-4, 4-11) [I-1033]: the EC50 (in general, the midpoint of the concentration-response curve) came to 10 nM.
With Ac-[αAllylPro]D[tBuAla][B5(5)]DDAAFS[PyrS2″][Phe(2-Cl)][Bta][dT]-NH2 (staple 1-4, 4-11) [I-1032], the EC50 was 15 nM.
The same measure, in the same setting: next, Ac-[αAllylPro]D[tBuAla][B5(5)]DEAAFT[PyrS2″][Phe(2-Cl)][Bta][dT]-NH2 (staple 1-4, 4-11) [I-1037]: 30 nM; Ac-[αAllylPro]D[tBuAla][B5(5)]DEAAFS[PyrS2″][Phe(2-Cl)][Bta][dT]-NH2 (staple 1-4, 4-11) [I-1036]: 29 nM.

For the next assay the target is unchanged. Nature of the assay: FP competition; full-length beta-catenin, competitor 5FAM-TCF4(10-53).
Target sequence in this assay (P35222 whole entry, one chain of several): as the sequence (P35222 whole entry) above
Consider [αAllylPro]D[tBuAla][B5(4)]DDAAFF[PyrS2″][hPhe][Bta]Q-NH2 (staple 1-4, 4-11) [I-1351], for which the EC50 is 258 nM.
NdiMeButC-[αAllylPro]D[tBuAla][B5(4)]DDAAFS[PyrS2″]F[Bta]S-NH2 (staple 1-4, 4-11) [I-1354] displayed an EC50 of 48 nM.
Octanoyl-[αAllylPro]D[tBuAla][B5(4)]DDAAFS[PyrS2″]F[Bta]S-NH2 (staple 1-4, 4-11) [I-1355]: the EC50 was 213 nM.
Take Ac-[αAllylPro]D[tBuAla][B5(4)]DDAAF[Phe(4-CF3)][PyrS2][3Thi][Bta]Q-NH2 (staple 1-4, 4-11) [I-1365]: the EC50 is 9 nM.
In the case of Ac-[αAllylPro]D[tBuAla][B5(4)]DDAAF[Phe(3-CF3)][PyrS2][3Thi][Bta]Q-NH2 (staple 1-4, 4-11) [I-1364], the EC50 was determined as 9 nM.

For a further assay, the target named is Bcat-Halo (UniProt P35222). Nature of the assay: NanoBRET absolute IC50 in HEK293 cells; Bcat-Halo, competitor TCF4-Luc. In general terms: BRET reads energy transfer from a luciferase to a nearby fluorophore.
Chain of Bcat-Halo (P35222 whole entry): as above
On to Ac-[αAllylPro]D[tBuAla][B5(4)]DQAAFL[PyrS2″][3Thi][Bta]Q-NH2 (staple 1-4, 4-11) [I-1440], for which the IC50 (as a rule, the point on the concentration scale where inhibition reaches its midpoint) was 20700 nM.
In turn, Ac-[αAllylPro]D[tBuAla][B5(5)]DDAAFT[PyrS2″][Phe(2-Cl)][Bta][dT]-NH2 (staple 1-4, 4-11) [I-1033] yielded an IC50 of 8600 nM.
As for Ac-[αAllylPro]D[tBuAla][B5(5)]DDAAFS[PyrS2″][Phe(2-Cl)][Bta][dT]-NH2 (staple 1-4, 4-11) [I-1032], the IC50 amounted to 10400 nM.
Ac-[αAllylPro]D[tBuAla][B5(5)]DEAAFT[PyrS2″][Phe(2-Cl)][Bta][dT]-NH2 (staple 1-4, 4-11) [I-1037] returned an IC50 of 4400 nM.
For Ac-[αAllylPro]D[tBuAla][B5(5)]DEAAFS[PyrS2″][Phe(2-Cl)][Bta][dT]-NH2 (staple 1-4, 4-11) [I-1036], the IC50 was determined as 16600 nM.

The target of another assay is full-length beta-Catenin (Uniprot ID P35222) (Homo sapiens (Human)) (UniProt P35222). Nature of the assay: fluorescence polarization competition; full-length beta-catenin, competitor 5FAM-TCF4 10-53. In general terms: In fluorescence polarisation assays a small probe gives low polarisation when free and higher when bound to something large.
Target sequence in this assay (P35222 whole entry, one chain of several): as the sequence (P35222 whole entry) above
For Ac-[αAllylPro]D[tBuAla][B5(5)]DDAAFT[PyrS2″][Phe(2-Cl)][Bta][dT]-NH2 (staple 1-4, 4-11) [I-1033], the IC50 came out at 10 nM.
For the molecule Ac-[αAllylPro]D[tBuAla][B5(5)]DDAAFS[PyrS2″][Phe(2-Cl)][Bta][dT]-NH2 (staple 1-4, 4-11) [I-1032], the IC50 came out at 15 nM.
For Ac-[αAllylPro]D[tBuAla][B5(5)]DEAAFT[PyrS2″][Phe(2-Cl)][Bta][dT]-NH2 (staple 1-4, 4-11) [I-1037], the IC50 was 30 nM.
Turning to Ac-[αAllylPro]D[tBuAla][B5(5)]DEAAFS[PyrS2″][Phe(2-Cl)][Bta][dT]-NH2 (staple 1-4, 4-11) [I-1036], the IC50 came to 29 nM.

The next assay concerns the target beta-catenin (Homo sapiens (Human)) (UniProt P35222). Nature of the assay: fluorescence polarization competition; full-length beta-catenin with 5FAM-TCF4(10-53) probe as competitor.
As for Ac-[αAllylPro]D[tBuAla][B5(4)]DQAAFL[PyrS2″][3Thi][Bta]Q-NH2 (staple 1-4, 4-11) [I-1440], the EC50 was 26 nM.

In the next assay the target is full-length beta-Catenin (Uniprot ID P35222) (Homo sapiens (Human)) (UniProt P35222). The assay is described as above.
Target sequence in this assay (P35222 2-781 limits assumed): as the sequence (P35222 2-781 limits assumed) above
Molecule [αAllylPro]D[tBuAla][B5(4)]DDAAFF[PyrS2″][hPhe][Bta]Q-NH2 (staple 1-4, 4-11) [I-1351] returned an IC50 of 258 nM.
In the case of NdiMeButC-[αAllylPro]D[tBuAla][B5(4)]DDAAFS[PyrS2″]F[Bta]S-NH2 (staple 1-4, 4-11) [I-1354], the IC50 is 48 nM.
Take Octanoyl-[αAllylPro]D[tBuAla][B5(4)]DDAAFS[PyrS2″]F[Bta]S-NH2 (staple 1-4, 4-11) [I-1355]: the IC50 came to 213 nM.
Ac-[αAllylPro]D[tBuAla][B5(4)]DDAAF[Phe(4-CF3)][PyrS2][3Thi][Bta]Q-NH2 (staple 1-4, 4-11) [I-1365] yielded an IC50 of 9 nM.
The molecule Ac-[αAllylPro]D[tBuAla][B5(4)]DDAAF[Phe(3-CF3)][PyrS2][3Thi][Bta]Q-NH2 (staple 1-4, 4-11) [I-1364] returned an IC50 of 9 nM.

The target is the same in a further assay. Nature of the assay: fluorescence polarization competition; full-length beta-catenin, competitor 5FAM-TCF4(10-53) probe.
Target sequence in this assay (P35222 whole entry, one chain of several): as the sequence (P35222 whole entry) above
The molecule Ac-[αAllylPro]D[tBuAla][B5(4)]DQAAFL[PyrS2″][3Thi][Bta]Q-NH2 (staple 1-4, 4-11) [I-1440] came in with an IC50 of 26 nM.
